Values belong to the molecule of their own block, whether it stands above or below them. Non-standard residues stand in square brackets, D forms with d. pY = N[C@@H](Cc1ccc(OP(=O)(O)O)cc1)C(=O)O
Legend:
[1] = biological target: p190RhoGAP pY1087 peptide (Homo sapiens) (UniProt Q9NRY4); assay: ITC; details: cited from earlier work
[2] = biological target: p190RhoGAP pY1105 peptide (Homo sapiens) (UniProt Q9NRY4); assay: ITC; details: cited from earlier work
[3] = biological target: T1, p120RasGAP SH2-SH3-SH2 region (residues 174–444) (human, UniProt P20936 174-444, C236S | C261S | C372S | C402S); assay: ITC
T1 sequence (looked up): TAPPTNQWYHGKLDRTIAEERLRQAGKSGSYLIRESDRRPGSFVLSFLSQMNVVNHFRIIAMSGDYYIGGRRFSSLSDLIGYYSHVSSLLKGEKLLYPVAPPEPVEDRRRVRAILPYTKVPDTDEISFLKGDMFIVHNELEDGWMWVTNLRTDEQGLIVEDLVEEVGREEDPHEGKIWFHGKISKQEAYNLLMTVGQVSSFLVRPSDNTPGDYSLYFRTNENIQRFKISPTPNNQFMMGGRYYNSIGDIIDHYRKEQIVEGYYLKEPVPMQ

Ras = details: ref [3],[4]; cited from earlier work

Sequence of p190RhoGAP pY1105 peptide (Homo sapiens) (Q9NRY4 whole entry, the tested form may be a part): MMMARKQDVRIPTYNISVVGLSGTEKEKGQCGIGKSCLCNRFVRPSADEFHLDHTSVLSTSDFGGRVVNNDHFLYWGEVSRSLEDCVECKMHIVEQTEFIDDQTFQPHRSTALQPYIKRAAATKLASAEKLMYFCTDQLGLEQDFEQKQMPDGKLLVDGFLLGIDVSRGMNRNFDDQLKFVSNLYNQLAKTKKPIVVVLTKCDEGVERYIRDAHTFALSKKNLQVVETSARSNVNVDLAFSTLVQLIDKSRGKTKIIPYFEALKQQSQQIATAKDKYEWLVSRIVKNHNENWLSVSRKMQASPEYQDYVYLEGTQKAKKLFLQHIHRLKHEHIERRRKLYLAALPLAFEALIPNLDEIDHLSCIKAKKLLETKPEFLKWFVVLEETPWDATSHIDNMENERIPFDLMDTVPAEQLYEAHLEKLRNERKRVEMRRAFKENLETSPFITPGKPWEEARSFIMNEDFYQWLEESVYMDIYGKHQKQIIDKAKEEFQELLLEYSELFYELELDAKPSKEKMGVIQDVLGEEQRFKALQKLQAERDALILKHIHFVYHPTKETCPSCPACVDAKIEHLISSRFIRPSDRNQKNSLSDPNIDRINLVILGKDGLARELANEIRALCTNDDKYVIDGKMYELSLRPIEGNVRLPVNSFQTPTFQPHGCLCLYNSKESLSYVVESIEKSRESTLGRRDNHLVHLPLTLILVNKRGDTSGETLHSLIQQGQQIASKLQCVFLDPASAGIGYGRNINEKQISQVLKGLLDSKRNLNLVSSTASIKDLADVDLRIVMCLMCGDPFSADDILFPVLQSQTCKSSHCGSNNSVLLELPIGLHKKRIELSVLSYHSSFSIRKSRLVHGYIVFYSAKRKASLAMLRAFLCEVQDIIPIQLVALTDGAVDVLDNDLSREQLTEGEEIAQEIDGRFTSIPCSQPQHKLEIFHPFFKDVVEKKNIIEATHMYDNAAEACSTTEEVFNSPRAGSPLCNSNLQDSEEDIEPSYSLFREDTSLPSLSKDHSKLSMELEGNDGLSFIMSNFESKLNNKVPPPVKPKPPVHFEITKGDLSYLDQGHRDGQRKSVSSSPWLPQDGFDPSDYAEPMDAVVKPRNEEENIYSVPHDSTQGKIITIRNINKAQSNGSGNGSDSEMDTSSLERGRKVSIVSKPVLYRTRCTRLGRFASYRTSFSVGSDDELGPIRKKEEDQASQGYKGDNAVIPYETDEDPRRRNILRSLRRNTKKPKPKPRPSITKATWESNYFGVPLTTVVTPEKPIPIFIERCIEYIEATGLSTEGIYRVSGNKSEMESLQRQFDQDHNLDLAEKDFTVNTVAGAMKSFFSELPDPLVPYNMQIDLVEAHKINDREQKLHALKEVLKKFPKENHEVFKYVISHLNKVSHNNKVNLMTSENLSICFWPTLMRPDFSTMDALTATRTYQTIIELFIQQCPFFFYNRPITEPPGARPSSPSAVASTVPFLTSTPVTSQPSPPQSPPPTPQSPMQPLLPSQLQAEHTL
Sequence of p190RhoGAP pY1087 peptide (Homo sapiens) (Q9NRY4 whole entry): as the sequence (Q9NRY4 whole entry, the tested form may be a part) above

Molecule: p120RasGAP C-SH2 (from UniProt P20936)
Kd [1]: 150 nM

Molecule: p120RasGAP N-SH2 (from UniProt P20936)
Kd [2]: 300 nM

dH [3]: -31.1 kcal/mol
Molecule: Ac-DPSD[pY]AEPMDAVVKPRNEEENI[pY]SVPHDS-NH2 [doubly-phosphorylated p190RhoGAP-A peptide (residues 1083–1111, pY1087 and pY1105)]

B1: p120RasGAP: key regulatory protein of the Ras subfamily of small guanine-nucleotide binding GTPases (protein)
chain: T1 sequence (looked up)
modifications: left off: His6, N-terminal, cleaved
enhancement of GTPase activity of Ras (Ras): two to five orders of magnitude
